Experiment: soluble on expression in E. coli; label from the status in PepcDB or PDB records

| Sequence | soluble on expression in E. coli |
| --- | --- |
| MELLLLSNSTLPGKAWLEHALPLIANQLNGRRSAVFIPFAGVTQTWDEYTDKTAEVLAPLGVNVTGIHRVADPLAAIEKAEIIIVGGGNTFQLLKESRERGLLAPMADRVKRGALYIGWSAGANLACPTIRTTNDMPIVDPNGFDALDLFPLQINPHFTNALPEGHKGETREQRIRELLVVAPELTVIGLPEGNWIQVSNGQAVLGGPNTTWVFKAGEEAVALEAGHRF | soluble |
| SASAVFEGTSLVNMFVRGCWVNGIRRLIVSRRGDEEEFFEIRTEWSDRSVLYLHRSFADLGRLCKRLRDAFPEDRSELARTPLRQGLLAIKGAHDIETRLNEVEKLLETVISMPCKYSRSEVVLTFFERSPLDQVLKNDNVHKIQPSFQSPVKISEAKEGTGALRTGVVDGCEPPGGCWELSVGLLEEHQVFLTAERIFSPRKAFLRNHEVQWILFGKHRDHSH | soluble |
| MGSDKIHHHHHHLTEFTLMVAPNGARRGKADHPALPMTAPELAETALACHRLGAQALHLHVRDAEGVHSLDAGRYREAMSLVSEAVPTMGIQITTESAGLFDVGAQLACLEALRPAAASVSVREMARDKSLAARAYALCSEAGTQVQHILYTPECVEQLEAWYADGTVPDEMRDVILVLGQYATGQPARPAMLPPFLALIAPLDLRWSLCAFGPEEHACLLAAVEAGGQVRIGFENSLGPMGGPAWADNAASVEAFLNLTVARGHTLDPHQNMPGANLRELT | not soluble |
| MAVIVRKWFGLGRLPADLRCQVEAEGLIYLAEYVAVTRRFTGVIPGLRASHSIASYVGALAFTEQRVLGTLSMVPKLAGRVVDARWDGPQAGAATAEISPTGLQLDLDVADVDPKFSGQLALHFKATIGEDVLSRLPRRSLAFDVPAEYVNLAVGVTYSP | soluble |
| MGSDKIHHHHHHMINLFLYCRAGYEKDCAAEIQQRAAELNVGGFVKTNRNDGYVIFQCFQVGDADLLAEQIELDSLIFTRQMFAANELLKDLPEGDRVTPIVDALAKVHRAGELRVETPDTNEAKELSTFCRKLTVPLRQALKRSGALLEKENPKRPIIHVCFVGPGTAYVGYSLSHNSSPYFMGIPRLKMASDAPSRSTLKLDEAFIHFIPKSEQEQRLRSGMNSVDLGACPGGWTYQLVRRGMFVAAVDNGPMAQNLMDTGQVRHYQADGFRFEPPKKNIYWLVCDMVEKPSRVAELMEAWAINGWFKEAIFNLKLPMKSRYKEVSTILATMQEVLRENGIDDFHLACKHLYHDRDEVTVHLWLKPSVGFNFG | not soluble |
| MDSTKVTLTVRGSTAFGEVIAVVGSCETLGSWCQQKAVTLQPAEEDGTLWRTTIHVPRGAETKYRYFKAFILESKNAGGPCQVIVNRWETHQLPRSLSPSEPELVVDDGHFGVHDGAECVDSGWLTCQTEIRLRLHYSVKPPVSITKKKFKTSRIRLKPMLEGVEEEEDED | soluble |
| MIRSMTGFGRGRAQADGREFLVEIKTVNHRYCDIYIKLPRQISFLEDKVREVIGKSISRGKVDVFINYEDFSEDSKNILIDEGLAKTYIKSVEYLRDKYGLKDDISVSLIAKFPDILKVEKPEEDEEKIWNLLYEALSHALDSLISMRETEGEGLKNDLLERTDAIEKVVQEISIRAPEVVKEYKCKLENRIKEILEQQVIDENRLAMEVAIFADRCNIDEELVRLESHINQLRQTLNSDSDTPVGRKLDFLIQEMNREINTIGSKANDLSITQNVVEIKSELEKIREQIQNIE | soluble |
| MSLRIDHSGSCVWLKMQKPRFSFAVLLPSETMRRQFTRNTSNMKTELTLLEQTLTLHRFPKRNNETLQAWDAGDEYLIQHVEQLALPESSHIVIINDHFGTLSCWFSQKHKVSMMSDSYIAHQATQANLQQNQRPPVQLLTTLDPVPNDASVVLLQLPKSNRHLVWILSQLRKALSPNIPIIAVNKAKEIHTSTLNLFEKHLGPTTTSLAWKKHRLVFSSATVNPANEVNPECGWSIEPYAITLTNLPNVYSGESLDLGSRFILEHLPADPTLEDFIDLGCGNGVLSVRLGQLNPQAKITCVDESFMAIASAQKNLHDNLGKRDIHCIANNCLDGFPAHSSSMIVCNPPFHQQQTITDHIAWQMFCDSKHVLKKGGKLWVIGNRHLGYDVKLARLFGKSHVRVIANNSKFVILQAIKSEGHHHHHH | not soluble |
| GSHMTRTRMENELIVSKNMQNIIIAGNGPSLKNINYKRLPREYDVFRCNQFYFEDKYYLGKKIKAVFFNPGVFLQQYHTAKQLILKNEYEIKNIFCSTFNLPFIESNDFLHQFYNFFPDAKLGYEVIENLKEFYAYIKYNEIYFNKRITSGVYMCAIAIALGYKTIYLCGIDFYEGDVIYPFEAMSTNIKTIFPGIKDFKPSNCHSKEYDIEALKLLKSIYKVNIYALCDDSILANHFPLSININNNFTLENKHNNSINDILLTDNTPGVSFYKNQLKADNKIMLNFY | soluble |
| VLDDEEKIVDLSSSIEKFLDFAPGSLAGVALSEILHPEDYLHFKTALDRQKPHEAVLMFYSRFKTGDGSWLNVEWSLSIKRKPMTDQYEYTIILRKTDNPLF | not soluble |
| MTASLMNTGKKNPFRDTQQGEYGNGDRNDWVMQASCRNGDPDALFVRGAEQRRAAAICRQCPVMIQCRADALDNKVEFGVWGGLTERQRRAILRKNPHVDSWEQFFAQGGELLGM | not soluble |
| MVTLASHLDACPDAAIWGSSKTENLGVEKIIVNVISNSNIRYVLVCGTESRGHLAGHSLLAIHANGIDEQGRITGSQGAIPFIENISGTAVERFQQQVTVLNRIGLNDPEEIRRIVEDYRDKGEAYPEEPMLVCAPKKRQTSFAVPTSGDVIISGEFVMDSKAGIIYTAESL | not soluble |
| MGSDKIHHHHHHMNKETQAMMLVPQGSIEGYIHAAYDYPMLTAEEEKELAERLYYHQDLDAAKTLILSHLRFVIHVARGYSGYGLPQADLIQEGNIGLMKAVKRFNPEVGVRLVSFAVHWIKAEIHEYVLRNWRIVKVATTKAQRKLFFNLRKTKQRLGWFSDKEVDMVANELGVSKEDVLEMESRMTGSDVGFDLPVDDDESYAPALYLEDKSSNFAAELENENFETQAADQVANALAELDERSQDIIKSRWLDDEKATLHDLAAKYNISAERVRQLETNALKKLKSAVSF | not soluble |
| KSEKRMKLTLKGGAAVDPDSGLEHSAHVLEKGGKVFSATLGLVDIVKGTNSYYKLQLLEDDKENRYWIFRSWGRVGTVIGSNKLEQMPSKEDAIEHFMKLYEEKTGNAWHSKNFTKYPKKFYPLEI | soluble |
| SDFPPTKLDYHVDMFNLQSHSRFLSLFKAQDGRIALILESTVFHPQGGGQPSDTGLIVFSGSDLKFSVQDVRSKDGIVLHYGVFEGSNPESGIDSEKGKEVYLTVDESRRKLNSRLHSAGHLLDMCMQKVGLGHLEPGKGYHFPDGPFVEYKGSVPQEEFQVKQKELEAEANELISKGGKVYAAILPYEEASVLCGGSLPDYISKGSTPRIIKLGDSPGCPCGGTHVSNLSDIISMKMRTKKGMTKVFYTIAS | soluble |
| MAHDWEKVLLSPDTPAESALRVLDDSGLRLVLVVDEQRRLLGTLTDGDVRRALLRHVNFMTAAVADIMHREPRVALASASREQLRHLMEQHSLLHIPLLDHDDRVVGLETYQEVLQRPRRDNWVFLMAGGFGKRLRPLTDNCPKPMLLVGGKPMLQTILEGFIAAGFHRFYISVHYLPETIKNYFGDGSKWGVTIVYIEEDQPLGTGGALGLLPGTDDLPIIMMNGDILTRLDFNALLDFHEKHAADLTLCVREYDVQIPFGVVEGNDVTVTSIVEKPKHRFFVNAGIYVVTPQAIARVLPSMRVDMPDLIKQIIADQRNVSMFPIREYWLDIGRPEDFDVAQTSIAQLEHHHHHH | not soluble |
| MSDDEAAVPGNKPIRLPKKAAKVKNKAPAQLQITAEQLLREAKERELELIPPAPKTKITDPDELKEYQRKKRKEFEDGIRKNRMQLANWIKYGKWEESIGEIQRARSVFERALDVDHRSISIWLQYAEMEMRCKQINHARNVFDRAITIMPRAMQFWLKYSYMEEVIENIPGARQIFERWIEWEPPEQAWQTYINFELRYKEIDRARSVYQRFLHVHGINVQNWIKYAKFEERNGYIGNARAAYEKAMEYFGEEDINETVLVAFALFEERQKEHERARGIFKYGLDNLPSNRTEEIFKHYTQHEKKFGERVGIEDVIISKRKTQYEKMVEENGYNYDAWFDYLRLLENEETDREEVEDVYERAIANIPPHSEKRYWRRYIYLWINYALYEELVAKDFDRARQVYKACIDIIPHKTFTFAKVWIMFAHFEIRQLDLNAARKIMGVAIGKCPKDKLFRAYIDLELQLREFDRCRKLYEKFLESSPESSQTWIKFAELETLLGDTDRSRAVFTIAVQQPALDMPELLWKAYIDFEIACEEHEKARDLYETLLQRTNHIKVWISMAEFEQTIGNFEGARKAFERANQSLENAEKEERLMLLEAWKECETKSGDQEALKRVETMMPRRVKKRRQIQTEDGVDAGWEEYFDYIFPQDQAAKGSFKLLEAAARWKREREEAAARAAQELDAPIPEGDDDEEKEEAGKDAEEKVREGDSDTDLSESSSSSDSESSSSSSSDSSDSSDDDEDK | not soluble |
| MGSDKIHHHHHHMSLTDGPYAGPPQPDVVDPSGGANQTRVRAYNERLVMSLVRRHGSLSKAEIARRSGLSAQTASVIMRSLEADGLLVRGAPVRGRVGQPSIPMRLNPDAVYSFGVKIGRRSADLVLMDFLGTIRLHLHQIHTYPLPEEIVSFIVGGIGKLEGQLGPGERGRIAGVGIATPFELWNWSEEVGAPREEMDRWRDFDLQAAVASRIRHPVFLQNDGTSACGAELAFGVGASYPDFVYFYIGSFIGGGVVINSALFSGRTGTAGAVGPLPVAGKDGKSTQLLKIASVFVLEKLLRERGIDPEPLWYSADDWIDFGEPLEIWIQDAAAALAQAVVSAVSVVDFSAAVIDGGFPPWVRARLLAATRKALQTLDLQGVTVPDLVEGTVGSHARAIGGASLPLFSRYLLDTNVLFKEL | not soluble |
| MGSDKIHHHHHHMMKIPKKIHQIYTKGIHDLPEEILVSVGKLKDLNPGWEYFFYDEKSIIGYIHKHYGKEMLNIYLSINPKYGVAKADLFRYLLIYIEGGVYLDIKSSCSIPLDQVIKDDCEILLCSWDNKECGCDRNMGIHKELGFLKCGEYQQWNIISASGSPYIKSAIDEVIHRLKTYKPWIYGVGMKGVLNTTGPVPFSVGIERINKTEFFHHEENYRNIGLKYRNVTEETIRKLNKNHYSKLKDSIVTLEGKDKLYYKLWLLFFYPLQRLKKNIINESKFVIRKMKRISRKTSQ | not soluble |
| MVDEVAKKKSKKEKDKDSKLEKALKAQNDLIWNIKDELKKVCSTNDLKELLIFNKQQVPSGESAILDRVADGMVFGALLPCEECSGQLVFKSDAYYCTGDVTAWTKCMVKTQTPNRKEWVTPKEFREISYLKKLKVKKQDRIFPPETSASVALEHHHHHH | soluble |
| MKKFAAVIAVMALCSAPVMAAEQGGFSGPSATQSQAGGFQGPNGSVTTVESAKSLRDDTWVTLRGNIVERISDDLYVFKDASGTINVDIDHKRWNGVTVTPKDTVEIQGEVDKDWNSVEIDVKQIRKVNP | soluble |
| MGHHHHHHSHMLFIKFIHLEVFSMPERAIARHEVREIEQRHTMDGPRQDATLDEEEDMVIIYNRVPKTASTSFTNIAYDLCAKNKYHVLHINTTKNNPVMSLQDQVRFVKNITSWKEMKPGFYHGHVSYLDFAKFGVKKKPIYINVIRDPIERLVSYYYFLRFGDDYRPGLRRRKQGDKKTFDECVAEGGSDCAPEKLWLQIPFFCGHSSECWNVGSRWAMDQAKYNLINEYFLVGVTEELEDFIMLLEAALPRFFRGATELYRTAPDTATPSHRHGPICGSKSISSLLVKVSPVCKDSHCLGKCSRNGLSAV | not soluble |
